From publication PMC9982576, “Nuclear Fructose‐1,6‐Bisphosphate Inhibits Tumor Growth and Sensitizes Chemotherapy by Targeting HMGB1” (Advanced Science, 2023)
Changes are numbered by the printed parent chain. Blank lines part the entries; values can stand above or below the molecule they belong to.

Key:
HMGB1 [1] = molecular target: T1, HMGB1 (Homo sapiens, UniProt P09429); test: isothermal titration calorimetry; format: binding; details: 100 mM Hepes, 50 mM NaCl; single-site model; allosteric ligand
T1 construct: full-length, expressed in and purified from human HEK293 cells; self-associates into oligomers
T1 sequence (P09429 1-215): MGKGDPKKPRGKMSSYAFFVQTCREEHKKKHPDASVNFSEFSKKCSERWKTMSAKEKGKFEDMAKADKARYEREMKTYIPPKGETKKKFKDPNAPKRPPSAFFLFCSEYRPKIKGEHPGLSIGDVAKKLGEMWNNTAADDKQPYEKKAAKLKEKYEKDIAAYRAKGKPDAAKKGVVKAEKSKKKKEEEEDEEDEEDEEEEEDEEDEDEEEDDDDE

HMGB1 A-box (aa1–83) = molecular target: T2, HMGB1 A-box (aa1–83) (Homo sapiens, UniProt P09429); test: ITC of A-box with C15 peptide, with or without F1,6P; format: binding; details: 0.2 mM F1,6P; 100 mM Hepes, 50 mM NaCl; disruption of the A-box - C-tail peptide interaction
T2 construct: A-box domain aa1-83, purified from HEK293 cells; assayed with synthetic C15 peptide (HMGB1 C-tail aa200-214)
T2 sequence (P09429 1-83): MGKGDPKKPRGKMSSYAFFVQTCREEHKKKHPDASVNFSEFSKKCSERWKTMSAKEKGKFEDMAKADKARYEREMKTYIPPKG

HMGB1 [2] = molecular target: T1, HMGB1; test: SPR, inhibition of free HMGB1 binding to chip-anchored DNA; details: 100 mM Hepes, 50 mM NaCl; 25 °C; unmodified DNA
HMGB1 [3] = molecular target: T1, HMGB1; test: SPR, inhibition of free HMGB1 binding to chip-anchored HMGB1; details: 100 mM Hepes, 50 mM NaCl; 25 °C; HMGB1 self-association
Source text: SPR, inhibition of free HMGB1 binding to chip-anchored HMGB1 on HMGB1 | inhibitory efficiency of F1,6P on free HMGB1 binding to chip‐anchored HMGB1

[4] = molecular target: GFP(C)-HMGB1-K43/K44A-GFP(N) construct; test: split-GFP fluorescence complementation in HEK293 cells (Cytation cell imaging reader); details: each construct normalised to its own 0 mM value (1.0), read off a plot
[5] = molecular target: T3, HMGB1 A-box K43/44A, purified (UniProt P09429 1-83, K43/44A | K43/44A); test: ITC; purified HMGB1 A-box in the cell titrated with free C-tail (15) peptide; 100 mM Hepes, 50 mM NaCl; with or without 0.2 mM F1,6P; single site binding model; details: both partners purified
T3 construct: HMGB1 A-box (aa1-83 as told for the wild-type A-box) with K43 and K44 changed to alanine; also called K43/44A A-box; source: HEK293 cells, expressed and purified
T3 sequence (looked up): T2 sequence (P09429 1-83) with K43A, K44A

[6] = molecular target: T4, HMGB1 A-box (aa1–83), purified (UniProt P09429 1-83); test: as above; details: both partners purified
T4 construct: HMGB1 A-box, aa1-83; also called HMG A-box; source: HEK293 cells, expressed and purified
T4 sequence (looked up): T2 sequence (P09429 1-83)

Kd (HMGB1 [1]): 28.6 µM | IC50 (HMGB1 [2]): 14.1 µM | IC50 (HMGB1 [3]): 12.7 µM
Molecule: O=P(O)(O)OC[C@H]1OC(O)(COP(=O)(O)O)[C@@H](O)[C@@H]1O (stereo partly drawn) [F1,6P]
ITC of A-box with C15 peptide, with or without F1,6P (HMGB1 A-box (aa1–83)): C15 peptide displayed good affinity for the A‐box, whereas the interaction was highly disrupted by F1,6P

response (relative fluorescence intensity) ([4]; 1 mM F1,6P, parent: est. 0.83): 0.93 | response (relative fluorescence intensity) ([4]; 5 mM F1,6P, parent: est. 0.53): 0.92 | response (relative fluorescence intensity) ([4]; 10 mM F1,6P, parent: est. 0.38): 0.9
Molecule: GFP(C)-HMGB1(A-B)-linker-HMGB1(C)-GFP(N) fusion protein K43A; K44A

binding result [5]: binds | binding result [6]: binds
B1: C15 peptide (HMGB1 aa200–214) (peptide, UniProt P09429 200-214, looked up)
peptide: EEDEEDEDEEEDDDD
notes: HMGB1 acidic C-tail, aa200-214; also called C-tail (15) peptide; C-tail (15); source: synthetic peptide
